From patent US20260022175A1 (Chugai, published 2026)

Columns and labels:
[1] = biological target: T1, hCTLA4-His-BAP (human CTLA4 extracellular region with C-terminal His-tag and BAP-tag) (human, biotin on the BAP-tag); assay: SPR 37C, ATP 10 µM
T1 construct: also called hCTLA4-His-Biotin

[2] = biological target: T1, hCTLA4-His-BAP (human CTLA4 …); assay: SPR 37C, ATP 100 µM
[3] = biological target: T1, hCTLA4-His-BAP (human CTLA4 …); assay: SPR 37C, ATP 10 µM; remark: listed apart in the source
[4] = biological target: T1, hCTLA4-His-BAP (human CTLA4 …); assay: SPR 37C, no ATP, steady state model
[5] = biological target: T2, mCTLA4-His (mouse CTLA4 extracellular region linked with a His-tag) (mouse, UniProt P09793 36-161); assay: SPR 37C, ATP 100 µM
[6] = biological target: T2, mCTLA4-His (mouse CTLA4 extracellular …); assay: SPR 37C, ATP 10 µM
[7] = biological target: T3, Abatacept (human IgG1 constant region fused to hCTLA4) (human, UniProt P16410 38-161, biotinylated by amine coupling); assay: phage ELISA
T3 construct: bought drug; also called Abatacept-Biotin; biotin-labeled abatacept
T3 sequence (looked up): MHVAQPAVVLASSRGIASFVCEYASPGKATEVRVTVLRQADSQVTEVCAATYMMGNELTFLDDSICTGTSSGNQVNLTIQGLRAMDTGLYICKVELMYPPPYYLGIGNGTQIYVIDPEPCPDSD

T1 sequence (chain, as listed by the source limits assumed): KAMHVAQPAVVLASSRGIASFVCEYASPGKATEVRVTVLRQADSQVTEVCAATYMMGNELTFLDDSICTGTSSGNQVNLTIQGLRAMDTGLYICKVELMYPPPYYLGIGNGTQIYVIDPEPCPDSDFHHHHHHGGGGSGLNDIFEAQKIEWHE

B1: 04H1389-G1m/04L1086-lam1 (antibody, human IgG1, lambda, V domains shown)
VH: EVQLVESGGGLVKPGGSLRLSCAASGFTFSSKTMNWVRQAPGKGLEWVSSISTQSHYIYYAESVKGRFTISRDNAKNSLYLQMNSLRAEDTAVYYCARYGKREDMLWVFDYWGQGTLVTVSS
VL: QSALTQPPSASGSPGQTVTISCDGPSTGVGDYNYVHWYQQHPGKAPKLMIYFTSKKPSGVPDRFSGSKSGNTASLTVSGLQAEDEADYFCQTYAAPLGPMFGGGTKLTVLG
fold enhancement of binding ability against parent 04H1207-G1m/04L1086-lam1 [1]: ~10 fold

B2: 04H1382-G1m/04L1086-lam1 (antibody, human IgG1, lambda, V domains shown)
VH: EVQLVESGGGLVKPGGSLRLSCAASGFTFSSKTMNWVRQAPGKGLEWVSSISTQSHYIYYARSVKGRFTISRDNAKNSLYLQMNSLRAEDTAVYYCARYGKREDMLWVFDYWGQGTLVTVSS
VL: QSALTQPPSASGSPGQTVTISCDGPSTGVGDYNYVHWYQQHPGKAPKLMIYFTSKKPSGVPDRFSGSKSGNTASLTVSGLQAEDEADYFCQTYAAPLGPMFGGGTKLTVLG
fold enhancement of binding ability against parent 04H1208-G1m/04L1086-lam1 [1]: ~10 fold

B3: 04H1077-G1m/04L1305-k0MT (antibody, human IgG1, kappa, V domains shown)
VH: EVQLVESGGDLVKPGGGLRLSCAASGFTFSSRTMNWVRQAPGKGLEWVSSISTRSGYIYYAESVKGRFTISRDNAKNSLYLQMNSLRAEDTAVYYCARYGKREDMLWVFDYWGQGTLVTVSS
VL: DIVMTQSPLSLPVTPGEPASISCDGPSTGVGDYNYVHWYQQKPGQAPRLLIYFTSKKPSGVPDRFSGSGSGTDFTLKISRVEAEDVGVYYCQTYAAPLGPMFGQGTKLEIKR
Kd [2]: 56 nM
Kd [3]: 360 nM
Kd [4]: 6500 nM

B4: hUH02-G1d/hUL01-k0 (antibody, human IgG1, kappa, V domains shown)
VH: QVQLQESGPGLVKPSETLSLTCTVSGYSISSGYGWNWIRQPPGKGLEWIGFIYYEGSTYYNPSIKSRISITRDTSKNQFFLQVNSVTTEDTATYYCARQTGYFDYWGQGTLVTVSS
VL: DIVMTQSPDSLAVSLGERATINCKSSQSLFNSNAKTNYLNWYQQKPGQPPKLLIYYASTRHTGVPDRFSGSGSGTDFTLTISSLQAEDVAVYYCQQWYDYPYTFGAGTKVEIKR
notes: also called anti-mouse CTLA4 antibody
Kd [5]: 110 nM
Kd [6]: 110 nM

B5: ABAM001 (antibody, human IgG1, V domains shown)
VH: EVQLVESGGDLVKPGGGLRLSCAASGFTFSSYTMHWVRQAPGKGLEWVSSISSRSRYKYYADSVKGRFTISRDNAKNSLYLQMNSLRAEDTAVYYCARFGIKNKRNWVLDYWGQGTLVTVSS
VL: QSALTQPPSASGSPGQTVTISCTGTSTDVGAYNYVSWYQQHPGKAPKLMIYQVSKRPSGVPDRFSGSKSGNTASLTVSGLQAEDEADYFCSLYTTRPQLAFGGGTKLTVL
notes: also called ABADh11-4_020
binding result [7]: binds

B6: ABAM003 (antibody, human IgG1, V domains shown)
VH: EVQLVESGGDLVKPGGGLRLSCAASGFTFSGYTMHWVRQAPGKGLEWVSSISSRSRYASYADSVKGRFTISRDNAKNSLYLQMNSLRAEDTAVYYCARFGIKNHLNWVFDYWGQGTLVTVSS
VL: QSALTQPPSASGSPGQTVTISCTGTSSDVGDYNYVSWYQQHPGKAPKLMIYGVSKRPSGVPDRFSGSKSGNTASLTVSGLQAEDEADYFCSTVSTSHSPVFGGGTKLTVL
notes: also called ABADh12-4_014
binding result [7]: binds
